Data: patent US20130347134A1, “TRANSGENIC VON WILLEBRAND FACTOR ANIMALS AND USES THEREOF” (priority 2012, published 2013)

Tested on: murine platelets
Experiment: In vitro flow chamber, mouse platelets on recombinant VWF-A1, 800 s^-1
Format: cell-based
Conditions: wall shear rate 800 s^−1
Procedure: The protein was subsequently used in a series of in vitro flow chamber assays to assess function. Washed human or murine platelets (5×10^7/ml) were infused through a parallel plate flow chamber containing glass cover slips coated with either human VWF-A1 or mouse VWF-A1 protein (100 μg/ml final concentration) at a shear rate of 800 s^−1. After 5 minutes of continuous flow, adherent platelets were quantified.
In the case of the latter, the murine A1 fragment was inserted into pET-11b (Stratagene) and purified as previously described (Miura et al., 2000).
Support for this hypothesis is provided by mutagenesis studies. By analyzing the data obtained from the crystal structure of the murine VWF-A1 domain, the inventors have identified several residues that may participate in interactions with GPIb α (FIG. 15C). Residue 1326 was initially chosen for study and was mutated to the corresponding amino acid at the identical location in its human counterpart (from Arg to His). Subsequently, the ability of murine and human platelets to interact with this mutant protein substrate was evaluated at a wall shear rate of 800 s^−1. Incorporation of a histidine for arginine at position 1326 in murine VWF-A1 reduced murine platelet adhesion by about 5-fold and increased translocation velocities of cells by about 7-fold as compared to the WT mouse protein (FIGS. 13 and 16). […]

B1: His-tag M VWF-A1: recombinant murine VWF-A1 with N-terminus His tag (protein)
chain: QEPGGLVAPPTDAPVSSTTPYVEDTPEPPLHNFYCSKLLDLVFLLDGSSMLSEAEFEVLKAFVVGMMERLHISQKRIRVAVVEYHDGSRAYLELKARKRPSELRRITSQIKYTGSQVASTSEVLKYTLFQIFGKIDRPEASHITLLLTASQEPPRMARNLVRYVQGLKKKKVIVIPVGIGPHASLKQIRLIEKQAPENKAFLLSGVDELEQRRDEIVSYLCDLAPEAPAPTQPP
- platelets that adhered to and translocated: 449±53 platelets/mm^2
